# Assay results taken from article PMC10786891, “Massively parallel profiling of RNA-targeting CRISPR-Cas13d”.
# Numbering of substitutions follows the chain as printed. Names and notes keep the numbering of the source.
# T1: EsCas13d, nuclease-dead (Eubacterium siraeum, UniProt B0MS50, R295A;H300A;R849A;H854A)
# T1 sequence: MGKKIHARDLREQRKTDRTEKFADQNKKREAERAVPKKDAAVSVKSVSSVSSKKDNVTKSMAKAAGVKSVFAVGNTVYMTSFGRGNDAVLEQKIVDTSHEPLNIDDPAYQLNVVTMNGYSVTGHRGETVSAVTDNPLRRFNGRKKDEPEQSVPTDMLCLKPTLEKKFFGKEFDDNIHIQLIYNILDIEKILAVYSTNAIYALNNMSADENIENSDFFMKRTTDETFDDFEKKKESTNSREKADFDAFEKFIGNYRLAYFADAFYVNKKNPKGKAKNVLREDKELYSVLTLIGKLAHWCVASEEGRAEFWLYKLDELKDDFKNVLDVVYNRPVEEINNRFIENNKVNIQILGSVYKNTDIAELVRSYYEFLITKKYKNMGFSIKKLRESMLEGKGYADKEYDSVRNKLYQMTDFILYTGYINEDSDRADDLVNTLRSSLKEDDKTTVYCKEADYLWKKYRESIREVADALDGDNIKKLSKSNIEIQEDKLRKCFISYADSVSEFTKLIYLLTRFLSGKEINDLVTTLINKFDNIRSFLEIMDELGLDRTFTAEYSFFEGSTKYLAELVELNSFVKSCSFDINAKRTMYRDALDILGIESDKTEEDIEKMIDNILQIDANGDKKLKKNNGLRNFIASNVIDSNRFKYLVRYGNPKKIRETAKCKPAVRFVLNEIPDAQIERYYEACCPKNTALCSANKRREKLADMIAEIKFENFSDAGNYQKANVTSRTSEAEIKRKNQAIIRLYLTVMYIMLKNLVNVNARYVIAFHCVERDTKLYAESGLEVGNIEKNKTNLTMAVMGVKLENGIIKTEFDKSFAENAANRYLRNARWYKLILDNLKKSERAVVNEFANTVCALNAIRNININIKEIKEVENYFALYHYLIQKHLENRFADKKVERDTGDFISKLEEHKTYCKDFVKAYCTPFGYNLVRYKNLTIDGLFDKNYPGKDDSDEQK
# B1: target 1 del8,del15 (mixed)
# RNA 1: CACCCGUGCAAAAAUGCAGGGGUCUAAAACUGAGCGGAUAACCUCUCUAUGG
# RNA 2: GGGAAUGGAUCCACAUCUACGAAUUCGUACCAUAGAAGGUUACCGCUCACCGAGAUCGGAAGAGCACACGU
# B2: target 1 del2,del17 (mixed)
# RNA 1: B1 RNA 1
# RNA 2: B1 RNA 2 with G35A, A36G, C43U, G45C, C46G, U47C, C48U
# B3: target 1 C7U,G15A (mixed)
# RNA 1: B1 RNA 1
# RNA 2: GGGAAUGGAUCCACAUCUACGAAUUCGUACCAUAGAAAGGUUAUUCGCUCACCGAGAUCGGAAGAGCACACGU
# B4: target 1 A1U,U3C (mixed)
# RNA 1: B1 RNA 1
# RNA 2: B3 RNA 2 with A37G, U45C, U49C, A51U
# B5: target 1 C6G,U11A (mixed)
# RNA 1: B1 RNA 1
# RNA 2: B3 RNA 2 with A37G, U41A, U45C, C46G
# B6: target 1 C4U,A9C (mixed)
# RNA 1: B1 RNA 1
# RNA 2: B3 RNA 2 with A37G, A43C, U45C, C48U
# B7: target 1 C4G,A18G (mixed)
# RNA 1: B1 RNA 1
# RNA 2: B3 RNA 2 with A34G, A37G, U45C, C48G
# B8: target 1 insA 3' of 22,insC 3' of 13 (mixed)
# RNA 1: B1 RNA 1
# RNA 2: GGGAAUGGAUCCACAUCUACGAAUUCGUACACAUAGAGAGCGUUAUCCGCUCACCGAGAUCGGAAGAGCACACGU
# B9: target 1 insU 3' of 21,insG 3' of 8 (mixed)
# RNA 1: B1 RNA 1
# RNA 2: B8 RNA 2 with A31C, C32U, C41G, G42U, U44A, A45U, U46G
# B10: target 1 del13,del16 (mixed)
# RNA 1: B1 RNA 1
# RNA 2: B1 RNA 2 with A36G, G39U, U41A, A42U
# B11: target 1 U11C (mixed)
# RNA 1: B1 RNA 1
# RNA 2: B3 RNA 2 with A37G, U41C, U45C
# B12: target 1 U3G,C21U (mixed)
# RNA 1: B1 RNA 1
# RNA 2: B3 RNA 2 with C31U, A37G, U45C, U49G
# B13: target 1 A1U,U3A (mixed)
# RNA 1: B1 RNA 1
# RNA 2: B3 RNA 2 with A37G, U45C, U49A, A51U
# B14: target 1 U8G,A20C (mixed)
# RNA 1: B1 RNA 1
# RNA 2: B3 RNA 2 with A32C, A37G, U44G, U45C
# B15: target 1 insA 3' of 11,insC 3' of 10 (mixed)
# RNA 1: B1 RNA 1
# RNA 2: GGGAAUGGAUCCACAUCUACGAAUUCGUACCAUAGAGAGGUAUCAUCCGCUCACCGAGAUCGGAAGAGCACACGU
# B16: target 1 insG 3' of 19,insG 3' of 8 (mixed)
# RNA 1: B1 RNA 1
# RNA 2: B8 RNA 2 with A31C, C32A, A33U, U34G, C41G, G42U, U44A, A45U, U46G
# B17: target 1 A1C,U11C (mixed)
# RNA 1: B1 RNA 1
# RNA 2: B3 RNA 2 with A37G, U41C, U45C, A51C
# B18: target 1 U8A,G17A (mixed)
# RNA 1: B1 RNA 1
# RNA 2: B3 RNA 2 with G35A, A37G, U44A, U45C
# B19: target 1 del1,del4 (mixed)
# RNA 1: B1 RNA 1
# RNA 2: GGGAAUGGAUCCACAUCUACGAAUUCGUACCAUAGAGAGGUUAUCCGUCCCGAGAUCGGAAGAGCACACGU
# B20: target 1 U3A (mixed)
# RNA 1: B1 RNA 1
# RNA 2: B3 RNA 2 with A37G, U45C, U49A
# B21: target 1 U3G,G12A (mixed)
# RNA 1: B1 RNA 1
# RNA 2: B3 RNA 2 with A37G, G40A, U45C, U49G
# B22: target 1 C2G,U10A (mixed)
# RNA 1: B1 RNA 1
# RNA 2: B3 RNA 2 with A37G, U42A, U45C, C50G
# B23: target 1 insG 3' of 8,insA 3' of 4 (mixed)
# RNA 1: B1 RNA 1
# RNA 2: B15 RNA 2 with A42U, U43A, C44U, A45G, U46C, C48G, G49C, C50A
# B24: target 1 G12U,A16U (mixed)
# RNA 1: B1 RNA 1
# RNA 2: B3 RNA 2 with A36U, A37G, G40U, U45C
# B25: target 1 insG 3' of 16,insU 3' of 1 (mixed)
# RNA 1: B1 RNA 1
# RNA 2: GGGAAUGGAUCCACAUCUACGAAUUCGUACCAUAGAGGAGGUUAUCCGCUCAUCCGAGAUCGGAAGAGCACACGU
# B26: target 1 A1C,U3A (mixed)
# RNA 1: B1 RNA 1
# RNA 2: B3 RNA 2 with A37G, U45C, U49A, A51C
# B27: target 1 insU 3' of 15,insG 3' of 8 (mixed)
# RNA 1: B1 RNA 1
# RNA 2: B15 RNA 2 with A38U, G39A, U41G, A42U, C44A, A45U, U46G
# B28: target 1 insA 3' of 10,insU 3' of 4 (mixed)
# RNA 1: B1 RNA 1
# RNA 2: B25 RNA 2 with G38A, A39G, G41U, U43A, C51U, A52C, U53A
# B29: target 1 insC 3' of 10,insU 3' of 7 (mixed)
# RNA 1: B1 RNA 1
# RNA 2: B15 RNA 2 with A42U, U43C, C44A, A45U, U46C, C47U
# B30: target 1 C7A,C22A (mixed)
# RNA 1: B1 RNA 1
# RNA 2: B3 RNA 2 with C30A, A37G, U45A
# B31: target 1 insU 3' of 7,insG 3' of 3 (mixed)
# RNA 1: B1 RNA 1
# RNA 2: B15 RNA 2 with A42U, U43A, C44U, A45C, C48G, G49C, C50U, U51G
# B32: target 1 insC 3' of 10,insA 3' of 8 (mixed)
# RNA 1: B1 RNA 1
# RNA 2: B15 RNA 2 with A42U, U43C, C44A, A45U, U46A
# B33: target 1 del2,del4 (mixed)
# RNA 1: B1 RNA 1
# RNA 2: B19 RNA 2 with C49A
# B34: target 1 U8C,A9U (mixed)
# RNA 1: B1 RNA 1
# RNA 2: B3 RNA 2 with A37G, A43U, U44C, U45C
# B35: target 1 C6G,A9G (mixed)
# RNA 1: B1 RNA 1
# RNA 2: B3 RNA 2 with A37G, A43G, U45C, C46G
# Molecular target: T1, EsCas13d, nuclease-dead
# Test: crRNA (strand 1, pre-loaded); Mg2+; 40 mM Tris-HCl pH 7.5, 150 mM NaCl, 6 mM MgCl2, 1 mM DTT, 0.1% Tween-20, 0.2 mg/ml BSA; 25 C; 10 min per concentration, then washed
# Conditions: tags: His6-TwinStrep-SUMO cleaved; N-terminal SNAP kept (SNAP-Surface 488); label: 3' end held by stalled T7 RNA polymerase
row,Binder,Kd
1,B1,37.8 ± 3 nM
2,B2,~70 nM
3,B3,9.8 ± 0.6 nM
4,B4,20.9 ± 1.9 nM
5,B5,25.4 ± 0.9 nM
6,B6,26 ± 4 nM
7,B7,36 ± 12 nM
8,B8,22 ± 1.3 nM
9,B9,34.9 ± 3 nM
10,B10,94 ± 28 nM
11,B11,8.9 ± 0.6 nM
12,B12,11 ± 1.2 nM
13,B13,7.2 ± 0.6 nM
14,B14,91 ± 34 nM
15,B15,14.6 ± 0.7 nM
16,B16,58 ± 6 nM
17,B17,22 ± 4 nM
18,B18,92 ± 17 nM

row,Binder,Kd
1,B19,42 ± 8 nM
2,B20,15 ± 1.3 nM
3,B21,4 ± 0.5 nM
4,B22,12.7 ± 1.3 nM
5,B23,12 ± 0.7 nM
6,B24,79 ± 18 nM
7,B25,16 ± 1.3 nM
8,B26,37 ± 7 nM
9,B27,18.3 ± 1.7 nM
10,B28,9.3 ± 0.6 nM
11,B29,19.2 ± 1.3 nM
12,B30,12.1 ± 0.5 nM
13,B31,5.45 ± 0.31 nM
14,B32,18.8 ± 0.8 nM
15,B33,42 ± 10 nM
16,B34,20.5 ± 0.8 nM
17,B35,10.6 ± 0.9 nM
